The target of assay [1] is T1, mouse FcγRII extracellular domain, C-terminal His tag (mouse, UniProt P08101 30-210).
T1 construct: Whole entry named; also called mFcγRII; mFcgRII
T1 sequence: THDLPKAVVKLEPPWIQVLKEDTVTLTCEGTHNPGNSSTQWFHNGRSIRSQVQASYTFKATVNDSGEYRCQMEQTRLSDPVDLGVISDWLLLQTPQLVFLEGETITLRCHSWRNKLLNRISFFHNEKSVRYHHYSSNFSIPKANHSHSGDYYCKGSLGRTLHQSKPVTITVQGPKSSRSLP
Description: SPR (Biacore T200), 1:1 fit. As to the method: (§1) Each altered antibody was analyzed for its interaction with each Fcγ receptor prepared above using Biacore T100 (GE Healthcare Japan Corp.), Biacore T200 (GE Healthcare Japan Corp.), Biacore A100, or Biacore 4000. The running buffer used was HBS-EP+ (GE Healthcare Japan Corp.). The assay temperature was set to 25° C. The sensor chips used were chips prepared by immobilizing Protein L (ACTIGEN or BioVision) onto Series S Sensor Chip CM5 (GE Healthcare Japan Corp.) or Series S Sensor Chip CM4 (GE Healthcare Japan Corp.) by the amine coupling method.
(§2) In order to calculate the KD value of each altered antibody for FcγR, kinetic analysis was conducted according to the following method: first, the antibody of interest was captured onto any of these chips and allowed to interact with mFcγR diluted with a running buffer. For the obtained sensorgram, the assay results were globally fit into the 1:1 Langmuir binding model using Biacore Evaluation Software to calculate an association rate constant ka (L/mol/s) and a dissociation rate constant kd (1/s). From these values, the dissociation constant KD (mol/L) was calculated.
(In general: Surface plasmon resonance follows binding to a sensor surface in real time, without labels.)

The target of assay [2] is T2, mouse FcγRIII extracellular domain, C-terminal His tag (mouse, UniProt P08508 31-215).
T2 construct: Whole entry named; also called mFcγRIII; mFcgRIII
T2 chain: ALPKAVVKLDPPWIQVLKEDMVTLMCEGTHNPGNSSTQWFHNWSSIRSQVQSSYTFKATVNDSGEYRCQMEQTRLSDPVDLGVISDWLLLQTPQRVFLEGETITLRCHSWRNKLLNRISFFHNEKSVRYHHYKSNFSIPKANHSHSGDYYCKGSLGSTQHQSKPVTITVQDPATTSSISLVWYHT
Description: SPR (Biacore T200), 1:1 fit. As to the method:
as §1, §2

Assay [3] has as its target T2, mouse FcγRIII extracellular domain, …. Nature of the assay: SPR (Biacore T200); KD of H237-mIgG1/MRAL-k0 / KD of variant. The method, then: as §1, §2
Assay [4] deals with T3, mouse FcγRII extracellular domain with C-terminal His tag (mouse, UniProt P08101 30-210).
T3 construct: Made on the basis of NCBI NP-034317.1; also called mFcγRII; mFcgRII
T3 sequence: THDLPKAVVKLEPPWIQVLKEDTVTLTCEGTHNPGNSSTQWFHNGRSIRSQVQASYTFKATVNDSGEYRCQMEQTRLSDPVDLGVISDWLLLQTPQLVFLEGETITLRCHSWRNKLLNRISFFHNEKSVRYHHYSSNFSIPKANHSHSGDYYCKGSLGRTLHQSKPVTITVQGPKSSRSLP
Nature of the assay: SPR Biacore T200. As to the method: as §1, §2

Assay [5] concerns the target T4, mouse FcγRIII extracellular domain with C-terminal His tag (mouse, UniProt P08508 31-215).
T4 construct: Made on the basis of NCBI NP-034318.2; also called mFcγRIII; mFcgRIII
T4 chain: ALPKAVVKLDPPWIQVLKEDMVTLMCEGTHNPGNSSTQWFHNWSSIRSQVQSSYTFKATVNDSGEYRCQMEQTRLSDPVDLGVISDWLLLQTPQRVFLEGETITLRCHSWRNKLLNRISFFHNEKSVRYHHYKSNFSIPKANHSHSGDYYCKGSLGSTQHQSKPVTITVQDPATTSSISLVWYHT
Nature of the assay: SPR Biacore T200. The method, then: as §1, §2

The target in assay [6] is T3, mouse FcγRII extracellular domain with …. Description: SPR Biacore T200. The method, then: as §1, §2
The source holds these as a separate data set.

The target in assay [7] is T4, mouse FcγRIII extracellular domain with …. Description: SPR Biacore T200. The method, then: as §1, §2

B1: H237-MB535/MRAL-k0 (antibody, mouse IgG1, kappa)
heavy: QVQLQESGPGLVKPSETLSLTCAVSGHSISHDHAWSWVRQPPGEGLEWIGFISYSGITNYNPSLQGRVTISRDNSKNTLYLQMNSLRAEDTAVYYCARSLARTTAMDYWGEGTLVTVSSAKTTPPSVYPLAPGSAAQTNSMVTLGCLVKGYFPEPVTVTWNSGSLSSGVHTFPAVLQSDLYTLSSSVTVPSSTWPSETVTCNVAHPASSTKVDKKIVPRDCGCKPCICQPNEVEEVFIFPPKPKDVLTITLTPKVTCVVVDISKDDPEVQFSWFVDDVEVHTAQTQPREEQFNLTFRSVSELPIMHQDWLNGKEFKCRVNSDAFPAPIERTISKTKGRPKAPQVYTIPPPKEQMAKDKVSLTCMITDFFPEDITVEWQWNGQPAENYKNTQPIMDTDGSYFVYSKLNVQKSNWEAGNTFTCSVLHEGLHNHHTEKSLSHSPGK
light: not shown
notes: copies: 2 + 2
For B1, the Kd (in general, the concentration at which binding is half-saturated) turned out to be 0.498 nM in assay [1] and 33.2 nM in assay [2]. Also, in assay [3], the “relative mFcγRIII-binding activity (mIgG1 = 1)” value was found to be 8.5 fold.

B2: H237-MB544/MRAL-k0 (antibody, mouse IgG1, kappa)
heavy: QVQLQESGPGLVKPSETLSLTCAVSGHSISHDHAWSWVRQPPGEGLEWIGFISYSGITNYNPSLQGRVTISRDNSKNTLYLQMNSLRAEDTAVYYCARSLARTTAMDYWGEGTLVTVSSAKTTPPSVYPLAPGSAAQTNSMVTLGCLVKGYFPEPVTVTWNSGSLSSGVHTFPAVLQSDLYTLSSSVTVPSSTWPSETVTCNVAHPASSTKVDKKIVPRDCGCKPCICEPNEVEMVFIFPPKPKDVLTITLTPKVTCVVVDISKDDPEVQFSWFVDDVEVHTAQTQPREEQFNSTFRSVSELPIMHQDWLNGKEFKCRVNSDAFPAPIERTISKTKGRPKAPQVYTIPPPKEQMAKDKVSLTCMITDFFPEDITVEWQWNGQPAENYKNTQPIMDTDGSYFVYSKLNVQKSNWEAGNTFTCSVLHEGLHNHHTEKSLSHSPGK
light: not shown
notes: copies: 2 + 2
Regarding B2, the Kd in assay [1] came out at 0.76 nM; in assay [2], 87.2 nM. Besides, the “relative mFcγRIII-binding activity (mIgG1 = 1)” value in assay [3] was 3.2 fold.

B3: H237-MB537/MRAL-k0 (antibody, mouse IgG1, kappa)
heavy: QVQLQESGPGLVKPSETLSLTCAVSGHSISHDHAWSWVRQPPGEGLEWIGFISYSGITNYNPSLQGRVTISRDNSKNTLYLQMNSLRAEDTAVYYCARSLARTTAMDYWGEGTLVTVSSAKTTPPSVYPLAPGSAAQTNSMVTLGCLVKGYFPEPVTVTWNSGSLSSGVHTFPAVLQSDLYTLSSSVTVPSSTWPSETVTCNVAHPASSTKVDKKIVPRDCGCKPCICQPNEVEEVFIFPPKPKDVLTITLTPKVTCVVVDISKDDPEVQFSWFVDDVEVHTAQTQPREEQFNLTFRSVSELPIMHQDWLNGKEFKCRVDSDAFPAPIERTISKTKGRPKAPQVYTIPPPKEQMAKDKVSLTCMITDFFPEDITVEWQWNGQPAENYKNTQPIMDTDGSYFVYSKLNVQKSNWEAGNTFTCSVLHEGLHNHHTEKSLSHSPGK
light: not shown
notes: copies: 2 + 2
For B3, the values for the Kd in assay [1] and in assay [2] were 0.412 nM and 31.7 nM, respectively. Also, the “relative mFcγRIII-binding activity (mIgG1 = 1)” value in assay [3] worked out at 8.9 fold.

B4: H237-MB536/MRAL-k0 (antibody, mouse IgG1, kappa)
heavy: QVQLQESGPGLVKPSETLSLTCAVSGHSISHDHAWSWVRQPPGEGLEWIGFISYSGITNYNPSLQGRVTISRDNSKNTLYLQMNSLRAEDTAVYYCARSLARTTAMDYWGEGTLVTVSSAKTTPPSVYPLAPGSAAQTNSMVTLGCLVKGYFPEPVTVTWNSGSLSSGVHTFPAVLQSDLYTLSSSVTVPSSTWPSETVTCNVAHPASSTKVDKKIVPRDCGCKPCICQPNEVEEVFIFPPKPKDVLTITLTPKVTCVVVDISKDDPEVQFSWFVDDVEVHTAQTQPREEQFNSTFRSVSELPIMHQDWLNGKEFKCRVDSDAFPAPIERTISKTKGRPKAPQVYTIPPPKEQMAKDKVSLTCMITDFFPEDITVEWQWNGQPAENYKNTQPIMDTDGSYFVYSKLNVQKSNWEAGNTFTCSVLHEGLHNHHTEKSLSHSPGK
light: not shown
notes: copies: 2 + 2
Regarding B4, the figures for the Kd in assay [1] and in assay [2] were 0.53 nM and 36.8 nM, respectively. Also, the “relative mFcγRIII-binding activity (mIgG1 = 1)” value in assay [3] is 7.7 fold.

B5: H237-MB473/MRAL-k0 (antibody, mouse IgG1, kappa)
heavy: QVQLQESGPGLVKPSETLSLTCAVSGHSISHDHAWSWVRQPPGEGLEWIGFISYSGITNYNPSLQGRVTISRDNSKNTLYLQMNSLRAEDTAVYYCARSLARTTAMDYWGEGTLVTVSSAKTTPPSVYPLAPGSAAQTNSMVTLGCLVKGYFPEPVTVTWNSGSLSSGVHTFPAVLQSDLYTLSSSVTVPSSTWPSETVTCNVAHPASSTKVDKKIVPRDCGCKPCICEPAEVEEVFIFPPKPKDVLTITLTPKVTCVVVDISKDDPEVQFSWFVDDVEVHTAQTQPREEQFNSTFRSVSELPIMHQDWLNGKEFKCRVNSAAFPAPIEKTISKTKGRPKAPQVYTIPPPKEQMAKDKVSLTCMITDFFPEDITVEWQWNGQPAENYKNTQPIMDTDGSYFVYSKLNVQKSNWEAGNTFTCSVLHEGLHNHHTEKSLSHSPGK
light: not shown
notes: copies: 2 + 2
Turning to B5, the Kd in assay [4] was 3.65 nM; in assay [5], 196 nM. In assay [6], the “relative mFcγRII-binding activity (mIgG1 = 1)” value amounted to 57.6. For the same molecule, the “relative mFcγRIII-binding activity (mIgG1 = 1)” value in assay [7] was determined as 1.4.

B6: H237-MB542/MRAL-k0 (antibody, mouse IgG1, kappa)
heavy: QVQLQESGPGLVKPSETLSLTCAVSGHSISHDHAWSWVRQPPGEGLEWIGFISYSGITNYNPSLQGRVTISRDNSKNTLYLQMNSLRAEDTAVYYCARSLARTTAMDYWGEGTLVTVSSAKTTPPSVYPLAPGSAAQTNSMVTLGCLVKGYFPEPVTVTWNSGSLSSGVHTFPAVLQSDLYTLSSSVTVPSSTWPSETVTCNVAHPASSTKVDKKIVPRDCGCKPCICEPNEVEMVFIFPPKPKDVLTITLTPKVTCVVVDISKDDPEVQFSWFVDDVEVHTAQTQPREEQFNSTFRSVSELPIMHQDWLNGKEFKCRVDSDAFPAPIEKTISKTKGRPKAPQVYTIPPPKEQMAKDKVSLTCMITDFFPEDITVEWQWNGQPAENYKNTQPIMDTDGSYFVYSKLNVQKSNWEAGNTFTCSVLHEGLHNHHTEKSLSHSPGK
light: not shown
notes: copies: 2 + 2
Turning to B6, the results for the Kd in assay [1] and in assay [2] were 0.547 nM and 83.3 nM, respectively. The “relative mFcγRIII-binding activity (mIgG1 = 1)” value in assay [3] worked out at 3.4 fold.

B7: H237-MB548/MRAL-k0 (antibody, mouse IgG1, kappa)
heavy: QVQLQESGPGLVKPSETLSLTCAVSGHSISHDHAWSWVRQPPGEGLEWIGFISYSGITNYNPSLQGRVTISRDNSKNTLYLQMNSLRAEDTAVYYCARSLARTTAMDYWGEGTLVTVSSAKTTPPSVYPLAPGSAAQTNSMVTLGCLVKGYFPEPVTVTWNSGSLSSGVHTFPAVLQSDLYTLSSSVTVPSSTWPSETVTCNVAHPASSTKVDKKIVPRDCGCKPCICEPNEVEMVFIFPPKPKDVLTITLTPKVTCVVVDISKDDPEVQFSWFVDDVEVHTAQTQPREEQFNSTFRSVSELPIMHQDWLNGKEFKCRVDSDAFPAPIERTISKTKGRPKAPQVYTIPPPKEQMAKDKVSLTCMITDFFPEDITVEWQWNGQPAENYKNTQPIMDTDGSYFVYSKLNVQKSNWEAGNTFTCSVLHEGLHNHHTEKSLSHSPGK
light: not shown
notes: copies: 2 + 2
As to B7, the Kd in assay [1] amounted to 0.589 nM; in assay [2], 71.7 nM. Further, the “relative mFcγRIII-binding activity (mIgG1 = 1)” value in assay [3] was 3.9 fold.

B8: H237-MB549/MRAL-k0 (antibody, mouse IgG1, kappa)
heavy: QVQLQESGPGLVKPSETLSLTCAVSGHSISHDHAWSWVRQPPGEGLEWIGFISYSGITNYNPSLQGRVTISRDNSKNTLYLQMNSLRAEDTAVYYCARSLARTTAMDYWGEGTLVTVSSAKTTPPSVYPLAPGSAAQTNSMVTLGCLVKGYFPEPVTVTWNSGSLSSGVHTFPAVLQSDLYTLSSSVTVPSSTWPSETVTCNVAHPASSTKVDKKIVPRDCGCKPCICEPNEVEMVFIFPPKPKDVLTITLTPKVTCVVVDISKDDPEVQFSWFVDDVEVHTAQTQPREEQFNLTFRSVSELPIMHQDWLNGKEFKCRVDSDAFPAPIERTISKTKGRPKAPQVYTIPPPKEQMAKDKVSLTCMITDFFPEDITVEWQWNGQPAENYKNTQPIMDTDGSYFVYSKLNVQKSNWEAGNTFTCSVLHEGLHNHHTEKSLSHSPGK
light: not shown
notes: copies: 2 + 2
With B8, the Kd stood at 1 nM in assay [1] and 52.1 nM in assay [2]. Further, the “relative mFcγRIII-binding activity (mIgG1 = 1)” value in assay [3] was determined as 5.4 fold.

The record behind these values is patent US20150203577A1 (Chugai, published 2015).
